Among the data in US20220073643A1 are EC50 values, retold here.

The labels stand for the following.
B1: 201F4H6 (antibody, V domains shown)
VH: QVQLKESGPGLVAPSQSLSITCTVSGFSLTSYGVSWVRQPPGKGLECLGVIWAGGNTNYNSALMSRLSISKDKSKSQVFLKMNSLQTDDTAMYYCARVYYGNAMDYWGQGTSVTVSS
VL: DIVMTQSPSSLTVTAGEKVTMSCKSSQSLLNSGNQKSYLTWYQQRPGQPPKLLIYWASTRESGVPDRFTGSGSGTDFTLTISSVQAEDLAVYFCQNVYFFPFTFGSGTKLETK
B2: 200A4H8 (antibody, V domains shown)
VH: QVQLKQSGPGLVQPSQSLSITCTVSGFSLTRYGVHWVRQSPGKGLEWLGVIWSGGNTDYNAAFISRLNIRKDNSKSQVFFKMNSLKPNDTAIYYCARAAYFGNSFDYWGQGTTLTVSS
VL: DIVMTQSPSSLPVTAGEKVTMSCKSSQSLLNSGNQKNYLTWYQQKPGQPPKLLIYWASTRDSGVPDRFTGSGSGTDFTLTISSVQAEDLAVYYCQNNYIYPLTFGAGTKLELK
B3: 413C12F8 (antibody, V domains shown)
VH: DVQLVESGGGLVQPGGSRKLSCAASGFTFSGFGVHWIRQTPEKGLEWVAYIGSGSRPIYYADTVKGRFTISRDNPKNTLFLQMTSLRSEDTAMYFCARFYYGNSFDHWGQGTLVTVSA
VL: B2 VL with S10F, P12T, S22N, K24R, K45R, D61E, V91L, N97A, I99S, Y100F
B4: 416F12F3 (antibody, V domains shown)
VH: DVQLVESGGGLVQPGGSRKLSCAASGFTFSSFGMHWVRQAPEKGLEWVAYISSGSSTIYYAHSVKGRFTISRDNPKNTLFLQMTSLGSEDTAMYYCARFYYGNSFAYWGQGTLVTVSA
VL: B2 VL with P12T, M21L, L52M, D61E, N97A, I99T, K109R
B5: 410H6H3 (antibody, V domains shown)
VH: B4 VH with Q3L, F32S, S56N, H62D, S63T, V64L, G87R, F99I, A106V
VL: B2 VL with P12T, T20I, L52M, D61E, T69R, I99Y, A106T, E111A
B6: 414H6G2 (antibody, V domains shown)
VH: B3 VH with V34M, P41A, G52S, K65Q
VL: B2 VL with S10F, P12T, D61E, V91L, N97A, I99S, Y100F
B7: 411B4G4 (antibody, V domains shown)
VH: B3 VH with V34L, G52S
VL: B2 VL with S10F, P12T, K24R, K36R, D61E, V91L, N97A, I99S, Y100F
B8: 203A6C9 (antibody, V domains shown)
VH: B2 VH
VL: B2 VL
B9: 412B6E4 (antibody, V domains shown)
VH: B4 VH with M34V, M93T
VL: B2 VL with P12T, L52M, D61E, N97A, I99T, K109R
B10: 414A5F7 (antibody, V domains shown)
VH: B4 VH with T57P, H62D, S63T, G87R, Y95F, F99I
VL: B2 VL with P12T, T20A, S28T, I54L, D61E, N97A, I99Y, A106S
B11: 413B1C9 (antibody, V domains shown)
VH: B3 VH with G31S, V34M, I37V, T40A, G52S, R56S
VL: B2 VL with P12T, A15T, T20S, L30F, S32R, N37S, D61E
B12: 409D1A7 (antibody, V domains shown)
VH: B3 VH with V34M, G52S, Q82H
VL: B2 VL with S10F, P12T, S22N, K36R, D61E, V91L, N97A, I99S, Y100F, K113N
B13: 411G3E10 (antibody, V domains shown)
VH: B3 VH with V34M, G52S
VL: B2 VL with S10F, P12T, S22N, K24R, D61E, V91L, N97A, I99S, Y100F
B14: 419A10D4 (antibody, V domains shown)
VH: B3 VH with V34M, G52S
VL: B2 VL with S10F, P12T, K36R, D61E, I81V, V91L, N97A, I99S, Y100F
B15: 418B8B10 (antibody, V domains shown)
VH: B3 VH with G31S, V34M, I37V, T40A, G52S, R56S, A61T
VL: B2 VL with P12T, T20S, L30F, S32R, N37S, K45R, D61E
B16: 410A9A9 (antibody, V domains shown)
VH: B4 VH with T57P, H62D, S63T, G87R, Y95F, R98T
VL: B2 VL with P12T, S28T, P46S, D61E, N97A, I99S, L102V, A106S, L110V
B17: 409G10G6 (antibody, V domains shown)
VH: B3 VH with V34M, G52S, G54D, A97G
VL: DIVMTQSPSFLTVTAGEKVTLSCRSSQSLLNSGNQRNYLTWYQQKPGQPPKLLIYWASTRESGVPDRFTGSGSGTDFTLTISSVQAEDRALYYCQNAYSFPLTFGTGTKLELR
B18: 419A5F3 (antibody, V domains shown)
VH: B3 VH with V34M, G52S, G54D, A97G
VL: B17 VL
B19: 411A6E3 (antibody, V domains shown)
VH: B3 VH with G31D, V34M, G52S, A97V, Y101F
VL: B17 VL with L21M, S22T, S28N, Q35L, R36K, Y55S, A86P, R89L, T106A, R113K
B20: 417A6F11 (antibody, V domains shown)
VH: EVQLQQSGPELVKPGASMKISCKASGYSFTGYTMNWVKQSHGKNLEWIGLINPYNGGTSYNQKFKGKATLTVDKSSSTAYMELLSLTSEDSAVYYCARGDYWGQGTTLTVSS
VL: DIVMTQSPSSLTVTAGEKVTMSCKSSQSLLNSGNQKNYLTWYQQKPGQPPKLLIYWASTRESGVPDRFTGSGSGTDFTLTISSVQAEDLAVYYCQNDYSYPTFGAGTKLELK

Numbering of substitutions follows the chain as printed.

The assay has as its target Claudin18.2-His protein (human). As to the kind of experiment: indirect ELISA on coated Claudin18.2-His.
As for B1, the 50% effective concentration (EC50) came to 119 ng/mL.

Take B2: the EC50 is 10.5 ng/mL. On to B3, for which the EC50 was determined as 6.82 ng/mL. The value for B4 was 11.5 ng/mL; that for B5 was 2.93 ng/mL; that for B6 was 11.6 ng/mL.

In turn, B7 displayed an EC50 of 9.45 ng/mL.

B8 returned an EC50 of 65.4 ng/mL. B9 returned an EC50 of 6.31 ng/mL. The value for B10 was 8.05 ng/mL; that for B11 was 3.46 ng/mL; that for B12 was 7.75 ng/mL. The value for B13 was 5.43 ng/mL; that for B14 was 6.53 ng/mL; that for B15 was 8.87 ng/mL.

B16: the EC50 turned out to be 20.8 ng/mL. The value for B17 was 9.52 ng/mL; that for B18 was 5.51 ng/mL; that for B19 was 6.74 ng/mL. The value for B20 was 42.8 ng/mL.
